Measured values as given in US10087225B2, “Formulation of MK2 inhibitor peptides” (MOERAE MATRIX, INC., priority 2015, dated 2018).

Key:
Assay in all cases: Kinase Profiling Assay
Type in all cases: biochemical
[1] = biological target: cKit(D816H)(h) (Homo sapiens, UniProt P10721, D816H)
[2] = biological target: T1, PrKX(h) (Homo sapiens, UniProt P51817)
T1 sequence (P51817 1-358): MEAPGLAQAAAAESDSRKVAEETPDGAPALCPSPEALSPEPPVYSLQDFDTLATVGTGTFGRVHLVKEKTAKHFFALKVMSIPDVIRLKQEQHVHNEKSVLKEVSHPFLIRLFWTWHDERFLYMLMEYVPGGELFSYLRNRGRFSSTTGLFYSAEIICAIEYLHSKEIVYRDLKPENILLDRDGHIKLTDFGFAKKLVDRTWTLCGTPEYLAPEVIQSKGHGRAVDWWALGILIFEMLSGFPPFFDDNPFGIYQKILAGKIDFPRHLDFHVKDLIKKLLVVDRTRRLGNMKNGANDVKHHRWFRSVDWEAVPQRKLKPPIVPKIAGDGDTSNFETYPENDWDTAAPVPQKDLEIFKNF

[3] = biological target: T2, IKKα(h) (Homo sapiens, UniProt O15111)
T2 sequence (O15111 1-745): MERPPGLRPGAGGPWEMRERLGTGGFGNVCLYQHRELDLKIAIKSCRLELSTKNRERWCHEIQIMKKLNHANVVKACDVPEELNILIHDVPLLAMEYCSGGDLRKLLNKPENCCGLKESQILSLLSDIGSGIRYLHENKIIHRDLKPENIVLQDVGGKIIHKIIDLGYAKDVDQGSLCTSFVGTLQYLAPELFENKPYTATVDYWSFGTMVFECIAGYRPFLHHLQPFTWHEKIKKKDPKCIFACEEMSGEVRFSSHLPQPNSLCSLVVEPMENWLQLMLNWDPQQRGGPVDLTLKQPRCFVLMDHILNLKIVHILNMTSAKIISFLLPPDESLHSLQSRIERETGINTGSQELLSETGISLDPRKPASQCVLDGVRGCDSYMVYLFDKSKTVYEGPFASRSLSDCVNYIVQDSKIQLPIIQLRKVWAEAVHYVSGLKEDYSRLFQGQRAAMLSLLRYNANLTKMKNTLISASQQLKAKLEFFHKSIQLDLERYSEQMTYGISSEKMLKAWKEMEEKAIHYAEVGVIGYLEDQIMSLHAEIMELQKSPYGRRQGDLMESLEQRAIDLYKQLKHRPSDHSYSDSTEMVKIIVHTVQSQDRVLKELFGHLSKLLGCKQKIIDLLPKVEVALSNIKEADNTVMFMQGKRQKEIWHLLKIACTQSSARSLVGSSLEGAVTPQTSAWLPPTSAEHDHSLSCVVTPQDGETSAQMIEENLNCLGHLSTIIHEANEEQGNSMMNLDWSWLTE

[4] = biological target: SAPK2b(h) (Homo sapiens, UniProt Q15759); settings: 100 μM
Chain of SAPK2b(h) (Q15759 whole entry): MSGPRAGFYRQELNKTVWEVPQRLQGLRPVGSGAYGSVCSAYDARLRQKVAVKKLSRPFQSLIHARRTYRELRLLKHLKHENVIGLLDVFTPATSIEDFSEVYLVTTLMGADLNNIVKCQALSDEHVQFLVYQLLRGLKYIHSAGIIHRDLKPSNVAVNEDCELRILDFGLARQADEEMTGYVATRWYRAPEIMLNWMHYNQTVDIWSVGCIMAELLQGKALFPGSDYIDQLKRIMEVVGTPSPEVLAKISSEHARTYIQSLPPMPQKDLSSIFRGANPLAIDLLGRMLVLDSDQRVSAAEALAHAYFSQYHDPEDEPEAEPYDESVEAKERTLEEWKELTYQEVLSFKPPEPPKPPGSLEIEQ

[5] = biological target: TLK2(h) (Homo sapiens, UniProt Q86UE8); settings: 100 μM
[6] = biological target: Met(h) (Homo sapiens, UniProt P08581); settings: 100 μM
Chain of Met(h) (P08581 25-1408 isoform P08581-2 limits assumed): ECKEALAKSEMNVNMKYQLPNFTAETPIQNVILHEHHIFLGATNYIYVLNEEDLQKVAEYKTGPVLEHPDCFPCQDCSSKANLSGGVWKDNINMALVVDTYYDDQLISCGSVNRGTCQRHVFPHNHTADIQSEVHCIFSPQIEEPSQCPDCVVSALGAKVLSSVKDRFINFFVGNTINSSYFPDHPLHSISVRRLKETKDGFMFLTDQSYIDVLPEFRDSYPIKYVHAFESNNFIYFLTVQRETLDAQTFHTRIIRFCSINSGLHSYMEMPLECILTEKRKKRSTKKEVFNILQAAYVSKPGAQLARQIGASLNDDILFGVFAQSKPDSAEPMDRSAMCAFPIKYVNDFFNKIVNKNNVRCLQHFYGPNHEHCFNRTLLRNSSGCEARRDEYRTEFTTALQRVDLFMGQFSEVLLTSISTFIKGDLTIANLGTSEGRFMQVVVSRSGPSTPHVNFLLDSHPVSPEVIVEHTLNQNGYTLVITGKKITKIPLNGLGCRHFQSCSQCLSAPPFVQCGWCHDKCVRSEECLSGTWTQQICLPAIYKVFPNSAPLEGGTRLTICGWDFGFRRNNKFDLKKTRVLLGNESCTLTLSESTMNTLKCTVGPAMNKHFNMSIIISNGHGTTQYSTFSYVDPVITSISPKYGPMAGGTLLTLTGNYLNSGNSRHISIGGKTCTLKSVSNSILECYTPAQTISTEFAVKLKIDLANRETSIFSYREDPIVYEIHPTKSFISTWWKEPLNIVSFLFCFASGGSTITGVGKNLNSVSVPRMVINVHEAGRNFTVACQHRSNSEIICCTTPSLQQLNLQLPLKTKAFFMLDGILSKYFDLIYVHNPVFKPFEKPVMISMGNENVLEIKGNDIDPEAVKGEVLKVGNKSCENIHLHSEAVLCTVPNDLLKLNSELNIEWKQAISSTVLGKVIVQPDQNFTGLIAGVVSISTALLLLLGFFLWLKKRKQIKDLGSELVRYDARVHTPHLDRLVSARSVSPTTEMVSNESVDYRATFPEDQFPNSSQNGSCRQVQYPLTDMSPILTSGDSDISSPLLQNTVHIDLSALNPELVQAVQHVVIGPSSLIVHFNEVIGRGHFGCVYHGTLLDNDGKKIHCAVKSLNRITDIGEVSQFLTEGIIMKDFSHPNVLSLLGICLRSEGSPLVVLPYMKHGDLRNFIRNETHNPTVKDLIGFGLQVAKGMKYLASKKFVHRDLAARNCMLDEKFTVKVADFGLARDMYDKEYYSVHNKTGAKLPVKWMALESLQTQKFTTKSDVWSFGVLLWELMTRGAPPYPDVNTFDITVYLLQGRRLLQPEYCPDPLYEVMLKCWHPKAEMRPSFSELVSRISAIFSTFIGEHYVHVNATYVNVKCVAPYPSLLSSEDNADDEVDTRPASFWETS

[7] = biological target: PKCγ(h) (Homo sapiens, UniProt P05129); settings: 100 μM
[8] = biological target: Pim-2(h) (Homo sapiens, UniProt Q9P1W9); settings: 100 μM
Chain of Pim-2(h) (Q9P1W9 whole entry): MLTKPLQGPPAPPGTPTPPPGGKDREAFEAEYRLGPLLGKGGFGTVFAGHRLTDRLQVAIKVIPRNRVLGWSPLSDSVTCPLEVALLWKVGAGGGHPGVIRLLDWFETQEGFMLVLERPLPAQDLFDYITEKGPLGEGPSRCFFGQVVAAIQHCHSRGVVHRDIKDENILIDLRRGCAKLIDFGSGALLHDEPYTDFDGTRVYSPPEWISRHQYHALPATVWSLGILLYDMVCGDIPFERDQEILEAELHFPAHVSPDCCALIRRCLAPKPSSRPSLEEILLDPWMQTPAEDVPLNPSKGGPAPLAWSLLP

[9] = biological target: RIPK2(h) (Homo sapiens, UniProt O43353); settings: 100 μM
Chain of RIPK2(h) (O43353 whole entry): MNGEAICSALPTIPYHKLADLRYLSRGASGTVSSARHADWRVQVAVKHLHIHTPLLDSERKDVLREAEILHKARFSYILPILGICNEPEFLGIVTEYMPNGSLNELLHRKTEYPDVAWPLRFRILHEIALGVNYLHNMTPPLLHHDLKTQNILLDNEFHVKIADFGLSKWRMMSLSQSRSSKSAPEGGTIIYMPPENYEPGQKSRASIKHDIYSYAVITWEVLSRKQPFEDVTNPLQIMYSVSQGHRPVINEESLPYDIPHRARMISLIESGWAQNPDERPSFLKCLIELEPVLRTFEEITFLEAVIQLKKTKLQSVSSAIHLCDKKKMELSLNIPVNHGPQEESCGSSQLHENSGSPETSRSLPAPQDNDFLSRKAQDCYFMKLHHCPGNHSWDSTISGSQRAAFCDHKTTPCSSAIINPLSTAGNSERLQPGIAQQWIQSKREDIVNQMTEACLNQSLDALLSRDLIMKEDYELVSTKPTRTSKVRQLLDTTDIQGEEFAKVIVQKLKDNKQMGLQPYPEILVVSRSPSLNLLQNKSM

[10] = biological target: CaMKIIγ(h) (Homo sapiens, UniProt Q13555); settings: 100 μM
Chain of CaMKIIγ(h) (Q13555 whole entry): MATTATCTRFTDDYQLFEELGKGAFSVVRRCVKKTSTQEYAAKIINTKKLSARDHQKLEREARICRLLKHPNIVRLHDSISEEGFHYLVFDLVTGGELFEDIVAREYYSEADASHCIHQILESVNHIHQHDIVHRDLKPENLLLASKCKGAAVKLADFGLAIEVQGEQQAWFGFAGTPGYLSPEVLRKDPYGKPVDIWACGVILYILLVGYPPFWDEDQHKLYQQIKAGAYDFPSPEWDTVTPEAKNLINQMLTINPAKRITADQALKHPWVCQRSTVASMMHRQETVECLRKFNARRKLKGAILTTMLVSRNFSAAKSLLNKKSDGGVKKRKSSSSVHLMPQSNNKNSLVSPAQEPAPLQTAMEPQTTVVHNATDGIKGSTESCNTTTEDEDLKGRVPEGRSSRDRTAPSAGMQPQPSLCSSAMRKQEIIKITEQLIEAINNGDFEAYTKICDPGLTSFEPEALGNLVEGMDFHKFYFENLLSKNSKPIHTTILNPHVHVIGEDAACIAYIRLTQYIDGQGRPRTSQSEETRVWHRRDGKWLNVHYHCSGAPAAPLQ

[11] = biological target: PKCα(h) (Homo sapiens, UniProt P17252); settings: 100 μM
[12] = biological target: BTK(h) (Homo sapiens, UniProt Q06187); settings: 100 μM
[13] = biological target: CaMKIδ(h) (Homo sapiens, UniProt Q8IU85); settings: 100 μM
Chain of CaMKIδ(h) (Q8IU85 whole entry): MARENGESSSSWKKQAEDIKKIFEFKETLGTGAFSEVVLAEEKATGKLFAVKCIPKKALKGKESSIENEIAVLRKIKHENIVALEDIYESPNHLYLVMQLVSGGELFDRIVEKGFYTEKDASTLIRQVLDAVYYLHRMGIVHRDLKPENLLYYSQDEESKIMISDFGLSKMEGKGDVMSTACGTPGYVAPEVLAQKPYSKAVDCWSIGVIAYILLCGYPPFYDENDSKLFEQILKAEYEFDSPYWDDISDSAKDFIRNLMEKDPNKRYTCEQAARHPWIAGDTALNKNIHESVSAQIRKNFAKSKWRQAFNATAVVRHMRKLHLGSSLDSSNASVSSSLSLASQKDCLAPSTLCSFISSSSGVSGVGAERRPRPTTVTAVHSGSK

[14] = biological target: T3, EphB3(h) (Homo sapiens, UniProt P54753); settings: 100 μM
T3 sequence (P54753 34-998): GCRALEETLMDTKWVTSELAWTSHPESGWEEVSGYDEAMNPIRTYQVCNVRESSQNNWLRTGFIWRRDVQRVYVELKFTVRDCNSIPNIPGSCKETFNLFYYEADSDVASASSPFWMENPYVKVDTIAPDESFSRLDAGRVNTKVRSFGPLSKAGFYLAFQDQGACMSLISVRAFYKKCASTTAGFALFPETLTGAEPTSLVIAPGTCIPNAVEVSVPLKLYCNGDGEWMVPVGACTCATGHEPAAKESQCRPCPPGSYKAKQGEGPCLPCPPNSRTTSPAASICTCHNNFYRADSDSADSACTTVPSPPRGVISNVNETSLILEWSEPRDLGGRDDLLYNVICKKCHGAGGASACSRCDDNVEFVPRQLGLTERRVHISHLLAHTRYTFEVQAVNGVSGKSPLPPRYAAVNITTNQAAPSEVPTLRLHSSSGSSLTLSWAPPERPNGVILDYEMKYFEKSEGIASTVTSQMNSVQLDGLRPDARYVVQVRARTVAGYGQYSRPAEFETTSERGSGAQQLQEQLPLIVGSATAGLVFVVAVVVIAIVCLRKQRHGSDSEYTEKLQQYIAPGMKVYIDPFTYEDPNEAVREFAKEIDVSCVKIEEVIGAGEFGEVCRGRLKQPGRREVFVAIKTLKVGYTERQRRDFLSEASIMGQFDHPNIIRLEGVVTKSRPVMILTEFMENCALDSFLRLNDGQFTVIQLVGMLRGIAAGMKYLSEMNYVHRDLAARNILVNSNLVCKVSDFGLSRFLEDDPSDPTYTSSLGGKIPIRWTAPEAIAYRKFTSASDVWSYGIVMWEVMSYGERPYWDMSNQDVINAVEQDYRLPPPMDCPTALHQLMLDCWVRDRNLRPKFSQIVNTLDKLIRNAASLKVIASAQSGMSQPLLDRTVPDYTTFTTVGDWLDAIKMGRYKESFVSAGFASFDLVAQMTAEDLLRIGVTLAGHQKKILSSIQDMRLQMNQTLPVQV

[15] = biological target: FGFR4(h) (Homo sapiens, UniProt P22455); settings: 100 μM

Substance | activity at 100 µM [1] [%] | activity at 100 µM [2] [%] | activity at 100 µM [3] [%] | % activity [4] [%] | % activity [5] [%] | % activity [6] [%] | % activity [7] [%] | % activity [8] [%] | % activity [9] [%] | % activity [10] [%] | % activity [11] [%] | % activity [12] [%] | % activity [13] [%] | % activity [14] [%] | % activity [15] [%] | % activity ([1]; 100 μM) [%] | % activity ([2]; 100 μM) [%] | % activity ([3]; 100 μM) [%]
H-YARAAARQARAKALARQLGVAA-OH [MMI-0100] | 79 | 84 | 108 |  |  |  |  |  |  |  |  |  |  |  |  |  |  | 
YARAAARQARAKALNRQLGVA (Mammalian) [MMI-0200] |  |  |  | 95 | 129 | 71 | 101 | 74 | 98 | 94 | 100 | 100 | 47 | 128 | 75 |  |  | 
HRRIKAWLKKIKALARQLGVAA (Mammalian) [MMI-0500] |  |  |  | 42 | 133 | 27 | 6 | 46 | 30 | 3 | 3 | 18 | 0 | 79 | 3 | 194 | 57 | 50
